Data from paper PMC10609481, “Substrate DNA Promoting Binding of Mycobacterium tuberculosis MtrA by Facilitating Dimerization and Interpretation of Affinity by Minor Groove Width”.
“And” between values parts separate entries of the source, which are not always exact repeats. Identical values can stand only once.

T1: MtrA (Mycobacterium tuberculosis H37Rv) (UniProt P9WGM7)
T1 sequence: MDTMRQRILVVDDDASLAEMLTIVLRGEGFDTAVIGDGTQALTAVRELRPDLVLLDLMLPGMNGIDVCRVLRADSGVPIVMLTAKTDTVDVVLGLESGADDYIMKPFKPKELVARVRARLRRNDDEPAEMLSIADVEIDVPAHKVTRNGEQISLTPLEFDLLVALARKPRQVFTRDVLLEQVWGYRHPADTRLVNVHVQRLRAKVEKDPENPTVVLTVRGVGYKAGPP

T2: MtrA (Mycobacterium tuberculosis H37Rv, UniProt P9WGM7 1-228)
T2 sequence: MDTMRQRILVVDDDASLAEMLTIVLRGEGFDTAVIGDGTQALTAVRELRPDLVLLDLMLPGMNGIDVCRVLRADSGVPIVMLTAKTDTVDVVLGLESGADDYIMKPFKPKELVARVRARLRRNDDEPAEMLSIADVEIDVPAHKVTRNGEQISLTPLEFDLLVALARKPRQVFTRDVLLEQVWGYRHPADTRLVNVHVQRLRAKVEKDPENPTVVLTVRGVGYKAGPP


Columns and labels:
[1] = target: T1, MtrA (Mycobacterium tuberculosis H37Rv); assay: BLI
MtrA = target: T2, MtrA; assay: BLI; settings: protein: recombinant; tags: His6 (pET28a, BamHI/XhoI; N-terminal, inferred from stop codon in reverse primer); chain copies: 2; blunt

Row | Molecule | Kd [1] | Kd (MtrA) | further results
1 | Rv0320 fragment | 0.142 µM | – | –
2 | Rv0469 fragment | 119 µM | – | –
3 | Rv1918c fragment | 0.079 µM | – | –
4 | Rv3246c fragment | 9880 µM | – | –
5 | Rv3849 fragment | 9650 µM | – | –
6 | Rv2524c fragment (dsDNA) DNA 1: GTTTTGTTATCAAATCGTTATGCTGG DNA 2: CCAGCATAACGATTTGATAACAAAAC | – | 0.0462 µM and 0.0625 µM | –
7 | Rv0309 fragment (dsDNA) DNA 1: GCTTTGTCACCGCACAGTGACCCAGC DNA 2: GCTGGGTCACTGTGCGGTGACAAAGC | – | 178 µM | –
8 | No-Binding fragment (dsDNA) DNA 1: ACAGCGGGACGTTTTCGCGCTGCATC DNA 2: GATGCAGCGCGAAAACGTCCCGCTGT | – | – | binding result (MtrA): no binding
9 | artificial highest-contribution sequence (dsDNA) DNA 1: GTTTTGTTATCGTTTTGTGATATGGA DNA 2: TCCATATCACAAAACGATAACAAAAC | – | 0.248 µM | –
10 | Rv3859c fragment (dsDNA) DNA 1: GTTACGTGATCGAATTGTGGTCCAGG DNA 2: CCTGGACCACAATTCGATCACGTAAC | – | 13.3 µM and 11.1 µM | –
